Patent publication US20230220073A1 (UCL BUSINESS, published 2023)
Values belong to the binder of their own block, whether it stands above or below them.

How the values were obtained:
CLL2 ROR1high = biological target: T1, CLL2 ROR1high (human, UniProt Q01973); experiment: flow cytometry, cells stained at 4 C, ahFc-DyLight647
T1 construct: on the cell surface; also called ROR1 on primary CLL cells with high ROR1
Procedure: FIG. 9A-FIG. 9C: Internalisation of ROR1 MAbs on SKW 6.4 GFP and CLL cells by flow cytometry. Cells were stained at 4° C. and either left on ice or incubated at 37° C. for 15 min, 1 h and 2 h. Cells were then analysed using an anti-human IgG as secondary antibody. FIG. 9A-FIG. 9B: Histograms and FIG. 9C: Trends over time showing the MFI reduction over time are presented. The % of MFI reduction was calculated as described in the Materials and Methods chapter. Phenylarsine oxide (PAO), an endocytosis inhibitor, acted as negative control (PAO-120).
To distinguish between dissociation and internalisation, SKW 6.4 cells were incubated on ice in the presence of our selected antibodies for 30 min. Cells were then washed with ice-cold PBS and either left on ice or incubated at 37° C. for 15 min, 1 h or 2 h. For the 2 h time point, a duplicate sample was incubated with PAO (10 μM). Immediately after incubation, all samples were washed with ice-cold PBS and stained with an anti-human Fc-Dylight 647 for 30 min. Cells were analysed by flow cytometry and MFI reduction was calculated.
Samples were processed as mentioned above and analysed by flow cytometry. […] This was even clearer on CLL cells, where virtually no internalisation of clone V was detected.

[1] = biological target: T2, ROR1 Ig-like domain alone, on transduced SUP-T1 cells (human, UniProt Q01973 30-147, limits assumed); experiment: flow cytometry, transduced SUP-T1 cells, anti-human Fc-Dylight647
T2 construct: domain: Ig-like; also called immunoglobulin domain
T2 sequence (Q01973 30-147 limits assumed): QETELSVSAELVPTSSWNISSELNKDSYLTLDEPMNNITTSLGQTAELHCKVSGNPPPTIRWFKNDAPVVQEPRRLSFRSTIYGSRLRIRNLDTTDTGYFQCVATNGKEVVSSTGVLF
Procedure: (§1) FIG. 1A-FIG. 1C: Identification of ROR1 binding domain: FIG. 1A: SUP-T1 cells were transduced with retroviral vectors containing either the full extracellular portion of ROR1 or only one or two extracellular domains. Non-transduced SUP-T1 (SUP-T1 NT) cells served as negative control. FIG. 1B: All 12 chimeric antibodies and FIG. 1C all 10 positive clones in scFv format were incubated with SUP-T1 NT and the new stable cell lines at 4° C. for 30 min. Cells were washed and stained with a secondary antibody (anti-human Fc-Dylight647), which was used as negative control. eROR1=extracellular ROR1, Ig-like=Immunoglobulin-like domain, Fz=Frizzled domain, Kg=Kringle domain.

[2] = biological target: T3, ROR1 Frizzled domain alone, on transduced SUP-T1 cells (human, UniProt Q01973 165-299); experiment: as above
T3 construct: domain: Fz; also called Fz; ROR1-Fz domain
T3 sequence (Q01973 165-299): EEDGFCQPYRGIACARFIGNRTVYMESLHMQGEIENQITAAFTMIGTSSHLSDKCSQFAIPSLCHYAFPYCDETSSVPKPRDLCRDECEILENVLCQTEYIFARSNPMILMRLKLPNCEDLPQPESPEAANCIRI
Procedure: as §1

[3] = biological target: T4, ROR1, full extracellular region, on transduced SUP-T1 cells (UniProt Q01973 30-406); experiment: as above
T4 construct: extracellular domain; also called eROR1; extracellular ROR1
T4 sequence (Q01973 30-406): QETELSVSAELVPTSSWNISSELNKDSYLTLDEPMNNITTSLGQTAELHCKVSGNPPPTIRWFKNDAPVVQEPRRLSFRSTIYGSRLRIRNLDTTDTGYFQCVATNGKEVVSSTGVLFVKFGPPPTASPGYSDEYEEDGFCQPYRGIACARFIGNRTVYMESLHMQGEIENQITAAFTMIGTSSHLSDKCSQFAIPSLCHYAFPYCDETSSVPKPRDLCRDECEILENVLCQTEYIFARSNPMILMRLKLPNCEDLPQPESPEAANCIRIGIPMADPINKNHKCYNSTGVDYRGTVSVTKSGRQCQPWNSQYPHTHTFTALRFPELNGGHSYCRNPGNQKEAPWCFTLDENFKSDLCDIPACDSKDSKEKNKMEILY
Procedure: as §1

Fz+Kg = biological target: T5, Fz+Kg (human, UniProt Q01973); experiment: as above
T5 construct: also called ROR1 Frizzled+Kringle domains, on transduced SUP-T1 cells
T5 sequence (Q01973 165-391 limits assumed): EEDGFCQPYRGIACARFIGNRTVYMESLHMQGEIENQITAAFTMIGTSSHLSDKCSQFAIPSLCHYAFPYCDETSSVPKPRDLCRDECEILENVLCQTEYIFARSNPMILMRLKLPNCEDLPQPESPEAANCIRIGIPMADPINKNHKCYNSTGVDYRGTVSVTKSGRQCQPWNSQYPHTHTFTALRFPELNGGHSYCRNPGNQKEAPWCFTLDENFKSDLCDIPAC
Procedure: as §1

[4] = biological target: T6, ROR1 Ig-like+Frizzled (Fz) domains, on transduced SUP-T1 cells (UniProt Q01973 30-299, limits assumed); experiment: as above
T6 construct: domain: Ig-like+Frizzled (Fz); also called Ig-Fz protein
T6 sequence (Q01973 30-299 limits assumed): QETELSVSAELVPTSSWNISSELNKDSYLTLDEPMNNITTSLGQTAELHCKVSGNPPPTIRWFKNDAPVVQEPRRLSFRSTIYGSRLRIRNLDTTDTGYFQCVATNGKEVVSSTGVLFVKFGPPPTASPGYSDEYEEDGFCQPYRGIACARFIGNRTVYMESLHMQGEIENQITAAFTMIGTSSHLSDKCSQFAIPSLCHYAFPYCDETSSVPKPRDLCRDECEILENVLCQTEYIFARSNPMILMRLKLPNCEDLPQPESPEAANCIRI
Procedure: as §1

Kringle (Kg) = biological target: T7, Kringle (Kg) (human, UniProt Q01973); experiment: as above
T7 construct: also called ROR1 Kringle domain alone, on transduced SUP-T1 cells
T7 sequence (Q01973 312-391 limits assumed): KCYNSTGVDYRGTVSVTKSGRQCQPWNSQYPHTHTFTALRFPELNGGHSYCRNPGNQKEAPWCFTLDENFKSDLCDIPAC
Procedure: as §1

SKW 6.4 GFP = biological target: T8, SKW 6.4 GFP (human, UniProt Q01973); experiment: flow cytometry, SKW 6.4 GFP cells stained at 4 C, anti-human Fc-Dylight 647
T8 construct: on the cell surface; also called ROR1 endogenously expressed on SKW 6.4 cells
T8 sequence (Q01973 30-937 limits assumed): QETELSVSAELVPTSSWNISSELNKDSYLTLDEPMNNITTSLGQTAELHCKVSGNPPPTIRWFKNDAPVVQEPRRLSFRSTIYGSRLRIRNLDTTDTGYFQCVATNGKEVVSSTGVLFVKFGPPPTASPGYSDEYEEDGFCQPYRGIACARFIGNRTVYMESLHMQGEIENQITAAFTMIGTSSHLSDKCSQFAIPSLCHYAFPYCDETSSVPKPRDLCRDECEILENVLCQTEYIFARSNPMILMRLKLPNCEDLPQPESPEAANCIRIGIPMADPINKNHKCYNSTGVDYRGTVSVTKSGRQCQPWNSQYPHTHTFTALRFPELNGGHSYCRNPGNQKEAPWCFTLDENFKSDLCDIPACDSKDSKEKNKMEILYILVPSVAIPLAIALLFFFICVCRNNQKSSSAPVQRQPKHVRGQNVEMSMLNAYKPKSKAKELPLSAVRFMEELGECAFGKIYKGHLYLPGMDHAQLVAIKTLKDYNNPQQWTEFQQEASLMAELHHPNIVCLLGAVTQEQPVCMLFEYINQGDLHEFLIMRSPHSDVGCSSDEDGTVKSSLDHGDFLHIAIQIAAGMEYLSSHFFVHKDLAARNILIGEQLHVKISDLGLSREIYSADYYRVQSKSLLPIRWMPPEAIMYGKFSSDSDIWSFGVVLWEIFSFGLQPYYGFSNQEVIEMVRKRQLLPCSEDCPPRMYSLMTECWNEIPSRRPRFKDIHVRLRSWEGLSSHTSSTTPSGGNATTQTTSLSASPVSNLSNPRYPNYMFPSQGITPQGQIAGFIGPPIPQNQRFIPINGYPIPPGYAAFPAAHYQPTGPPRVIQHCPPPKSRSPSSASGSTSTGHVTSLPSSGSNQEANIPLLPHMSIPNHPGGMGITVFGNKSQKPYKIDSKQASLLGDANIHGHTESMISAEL
Procedure: FIG. 8A-FIG. 8C: Internalisation of ROR1 antibodies on SKW 6.4 GFP cells by flow cytometry. SKW 6.4 GFP cells were stained at 4° C. and either kept on ice (blue line) or incubated at 37° C. (yellow line) for 1 h. […] Clones A, F and Mu (purple circle) were selected for further investigation. Clones R12 and 4a5 (in black) served as negative and positive control, respectively. Anti-human Fc-Dylight 647 was used as secondary antibody and as staining control (red line). MFI=Median Fluorescence Intensity.
After 30 min, cells were washed with ice-cold PBS, and either left on ice or incubated at 37° C. for 1 h. Subsequent staining with an anti-human Fc-Dylight 647 was used to detect any primary antibody that had remained on the cell surface. Previously reported clones R12 and 4a5 were also included in this assay as negative and positive controls, respectively (FIG. 8).

[5] = biological target: T4, ROR1, full extracellular region, on …; experiment: flow cytometry, ROR1-transduced cells, single staining; Q1 = ahFc+ only; amFc+ahFc alone Q1 0.060 (FIG. 7A)
[6] = biological target: T9, Histidine-tagged ROR1 protein (extracellular region) (UniProt Q01973 30-406); experiment: SPR, Biacore X100; antibody captured by anti-human IgG1 on CM5 chip, His-tagged ROR1 extracellular portion injected at 1.5-100 nM
T9 construct: extracellular domain; also called extracellular portion of ROR1 bearing a Histidine tag; not shown: Histidine tag
T9 sequence (Q01973 30-406): as the sequence (Q01973 30-406) above
Procedure: FIG. 3: KD determination by surface plasmon resonance. Sensorgrams obtained using a Biacore X100 instrument are shown. Briefly, ROR1 antibodies were immobilized using a CM5 chip and seven different concentrations of the Histidine-tagged ROR1 protein (extracellular region) were injected. Concentrations ranged from […].
We undertook surface plasmon resonance evaluation using a Biacore X100 instrument. ROR1 chimeric antibodies were immobilised using an anti-human IgG1 antibody capture kit and a CM5 sensor chip. Seven different concentrations, ranging from 1.5-100 nM, of the extracellular portion of ROR1 bearing a Histidine tag were then injected.

[7] = biological target: T4, ROR1, full extracellular region, on …; experiment: flow cytometry, ROR1-transduced cells, single staining; Q1 = ahFc+ only; amFc+ahFc alone Q1 0.060
Description: FIG. 7A-FIG. 7C: Competition assay by flow cytometry. Clone A (SA1) in murine IgG2a, k (mSA1) along with other ROR1 MAbs in human IgG1, k-including previously published 4a5, D10 and R12 clones—were used for staining ROR1-transduced cells. MAb staining was done as FIG. 7A-FIG. 7B: single agents or FIG. 7C: in combination with clone A (mSA1). Anti-human IgG (450) and anti-mouse IgG (DyLight649) were used as secondary antibodies. Combined staining using clones F and mSA1 acted as negative control for overlapping epitopes.
In FIG. 7C, three different columns are presented. Dot plots on the first column correspond to ROR1 binding assessed when SUP-T1 ROR1 cells were stained with clone A (SA1) (mIgG) in the first instance. After a washing step, cells were stained with a competitor antibody (hIgG), followed by another washing step. Both antibodies were then detected by a third staining step using the appropriate secondary antibodies. In the second column, a similar approach was taken when staining these cells, except that this time it was the antibody in hIgG1, k format the one used for the first staining step, followed by clone A (SA1) staining. On the third column, both antibodies were used at the same time.

T1 sequence (Q01973 30-937 limits assumed): as the sequence (Q01973 30-937 limits assumed) above

binding result (CLL2 ROR1high): binds
binding result [1]: no binding
binding result [2]: no binding
binding result [3]: binds
binding result (Fz+Kg): no binding
binding result [4]: binds
binding result (Kringle (Kg)): no binding
binding result (SKW 6.4 GFP): binds
B1: Clone V chimeric ROR1 antibody (antibody, V domains shown)
VH: EVQLVESGGGLVQPGRSLKLSCAASGFSFSNYGMHWIRQAPTKGLEWVASISPTGGNTYYRDSVKGRFTISRDNTKSTLYLQMDSLRSEDTATYYCATDDLYYSGPFAYWGQGTLVTVSS
VL: DIKMTQSPSFLSASVGDRVTINCKASQNITRFLNWYQQELGEAPTLLIYNTNNLQTGIPSRFSGSGSGTDFTLTISSLQPEDVATYFCLQHGSRPRTFGGGTKLELK

Q1 quadrant figure [5]: 96.9
B2: R12 (previously published ROR1 antibody) (antibody, V domains shown)
VH: QEQLVESGGRLVTPGGSLTLSCKASGFDFSAYYMSWVRQAPGKGLEWIATIYPSSGKTYYATWVNGRFTISSDNAQNTVDLQMNSLTAADRATYFCARDSYADDGALFNIWGPGTLVTISS
VL: ELVLTQSPSVSAALGSPAKITCTLSSAHKTDTIDWYQQLQGEAPRYLMQVQSDGSYTKRPGVPDRFSGSSSGADRYLIIPSVQADDEADYYCGADYIGGYVFGGGTQLTVTG

Q1 quadrant figure [5]: 84.3
B3: D10 (previously published ROR1 antibody, the prototype of Cirmtuzumab) (antibody, V domains shown)
VH: QVQLKESGPGLVAPSQTLSITCTVSGFSLTSYGVHWVRQPPGKGLEWLGVIWAGGFTNYNSALKSRLSISKDNSKSQVLLKMTSLQTDDTAMYYCARRGSSYSMDYWGQGTSVIVSS
VL: EIVLSQSPAITAASLGQKVTITCSASSNVSYIHWYQQRSGTSPRPWIYEISKLASGVPVRFSGSGSGTSYSLTISSMEAEDAAIYYCQQWNYPLITFGSGTKLEIQ

Kd [6]: 2.61 nM
koff [6]: 0.000416 s⁻¹
kon [6]: 159000 M⁻¹ s⁻¹
Q1 quadrant figure [7]: 96.7
binding result [2]: no binding
binding result (Fz+Kg): no binding
binding result (Kringle (Kg)): no binding
B7: Clone G5 chimeric ROR1 antibody (antibody, V domains shown)
VH: EVQVVESGGGLVQPGRSLKLSCVPSGFTFNNYWMTWIRQAPGKAPEWVASISNTGGSTFYPDSVRGRFSISRDNTKGTLYLHMTSLRSEDTATYYCIRNMDAWGQGTSVTVSS
VL: DIQLTQSPSTLSASLGERVTISCRASQSISNSLNWYQQKPDGTVKRLIYSTSTLESGVPSRFSGSGSGTDFSLSISSLESEDFAMYYCLQFATYPQVTFGSGTKLEIK

Continued, binder first:

B4: Clone Mu chimeric ROR1 antibody (antibody, V domains shown)
VH: QVQLQQSGAELVKPGSSVRISCKASGYTITSYDMHWIKQQPGNGLEGIGWIHPGNGKIKYNQKFNGKATLTVDKSSSTAYMQLSSLTSEDSAVYFCARGTTRVFPWFAYWGQGTLVTVSS
VL: QFTLTQPKSVSGSLRSTITIPCERSSGDIGDNYVSWYQQHLGRPPINVIYADDQRPSEVSDRFSGSIDSSSNSASLTITNLQMDDEADYFCQSFDSNFDIPVFGGGTKLTVL
binding result [1]: binds
binding result [2]: no binding
binding result [3]: binds
binding result (Fz+Kg): no binding
binding result [4]: binds
binding result (Kringle (Kg)): no binding

B5: Clone G3 chimeric ROR1 antibody (antibody, V domains shown)
VH: EVQLQESGPGLVKPAQSLSLTCSVTGYSITNMYRWNWIRKFPGNKLEWMGYINTAGSTDYSPSLRGRVSITGDTSKNQFFLHLTSVTTEDTATYYCAGFITNPFDFWGQGVMVTVSS
VL: DVVMTQTPVSLPVSLGGQVSISCRSSQSLEHSNGDTFLHWYLQKPGQSPRLLIYRVSNRFSGVPDRFSGSGSGTDFTLKISRIEPEDLGDYYCLQSTHFPNTFGAGTKLELK
Kd [6]: 2.45 nM
koff [6]: 0.000266 s⁻¹
kon [6]: 109000 M⁻¹ s⁻¹
Q1 quadrant figure [7]: 96.1
binding result [2]: no binding
binding result (Fz+Kg): no binding
binding result (Kringle (Kg)): no binding

B6: 4a5 (previously published ROR1 antibody) (antibody, V domains shown)
VH: EVKLVESGGGLVKPGGSLKLSCAASGFTFSSYAMSWVRQIPEKRLEWVASISRGGTTYYPDSVKGRFTISRDNVRNILYLQMSSLRSEDTAMYYCGRYDYDGYYAMDYWGQGTSVTVSS
VL: DIKMTQSPSSMYASLGERVTITCKASPDINSYLSWFQQKPGKSPKTLIYRANRLVDGVPSRFSGGGSGQDYSLTINSLEYEDMGIYYCLQYDEFPYTFGGGTKLEMK
Q1 quadrant figure [5]: 96.9
